B1: Azoarcus group I ribozyme (parent)
chain: GUGCCUUGCGCCGGGAAACCACGCAAGGGAUGGUGUCAAAUUCGGCGAAACCUAAGCGCCCGCCCGGGCGUAUGGCAACGCCGAGCCAAGCUUCGGCGCCUGCGCCGAUGAAGGUGUAGAGACUAGACGGCACCCACCUAAGGCAAACGCUAUGGUGAAGGCAUAGUCCAGGGAGUGGCGAAAGUCACACAAACCGG

The series covers variants of B1. The experiment in a line: reverse-splicing fitness (ratio to wild type); higher = more active; in vitro selection; Mg2+ level not given. The essentials:
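An in vitro group I ribozyme library with randomized positions was T7-transcribed and gel-purified. In triplicate, 10 pmol RNA in EPPS pH 7.5 was reacted with 50 pmoles of a 30-nt RNA substrate for 1 h at 37 °C across several added MgCl2 levels (1–48 mM), then stopped with EDTA. Products were reverse transcribed from a substrate-complementary primer, PCR-amplified and sequenced (HiSeq 4000). Fitness is a variant's read proportion after selection over that before, normalised to wild type.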
As for C82A A111G A120G A145U C150G C169A U176A, the reverse-splicing fitness was found to be 0.00976.
C82G A111C A120C A145U C150G C169A U176A: the reverse-splicing fitness was found to be 0.0121.
In the case of C82G A120C A145U C150G C169U it was 0.0102; in that of C82U A111C A145G C150A C169A U176G, 0.00838; in that of A111U A120G C150U C169U U176G, 0.00701.
In the case of C82U A111G A120C C150G C169G U176C it was 0.00429; in that of C82A A111G A120G A145G C150U C169A, 0.0119.
As for A111C A120G A145C, the reverse-splicing fitness was found to be 0.149.
C82U A111U A120U C150G U176C: the reverse-splicing fitness was 0.005.
The value for C82G A111C A120C A145G C169G U176C was 0.0253.
In the case of C82G A111G A120G A145G C150G C169A U176G it was 0.00881; in that of C82G A120G A145U C169U U176A, 0.0203.
In the case of C82A A111G A120C A145G C169A U176A it was 0.0226; in that of C82G A111G A145U C150A U176A, 0.03; in that of C82G A111C A120C A145U C150A C169A U176A, 0.0163.
For the variant C82G A111U A120U A145G C169U, the reverse-splicing fitness was 0.00483.
For C82G A111U A145U C150U U176A, the reverse-splicing fitness came to 0.124.
A120G A145U C150A C169A U176A: the reverse-splicing fitness was 0.0229.
The value for C82A A111C A120U A145C C150A C169A U176G was 0.00275; that for C82A A111C A120U A145C C150A C169A U176A was 0.00291.
As to C82U A111G A120U A145U, the reverse-splicing fitness came to 0.0429.
The value for C82G A111U A120U A145G C150A C169U U176G was 0.00285; that for C82U A111C A120C A145U C150U C169A U176G was 0.00665.
Take C82G A111C A120C A145G C150A C169U U176A: the reverse-splicing fitness came to 0.0157.
C82A A111U A120C C150G C169A: the reverse-splicing fitness turned out to be 0.0101.
In the case of C82G A111C A120C A145C C150A C169A U176G it was 0.00693; in that of A111U A120G C150G C169U U176A, 0.0137; in that of C82G A111G A120U C169A, 0.00418.
In the case of A111C A145U C150U C169G U176G, the reverse-splicing fitness was found to be 0.00734.
The value for C82A A120C A145U U176A was 0.0383; that for C82G A111G A145C C150U C169A U176A was 0.0123.
For the variant C82A A111U A120C A145C C169G, the reverse-splicing fitness was 0.01.
As for C82A A111C A120U C150A C169A, the reverse-splicing fitness stood at 0.00599.
In the case of C82A A145C C150U C169G U176C it was 0.0113; in that of C82G A111U A120G A145U C150G C169G U176C, 0.00489.
The value for C82G A120G A145U C169G was 0.0523; that for C82A A120C C150G U176C was 0.0106.
C82G A111C A145U C150G U176C: the reverse-splicing fitness is 0.0214.
In the case of C82U A120U A145U C150U U176A it was 0.0284; in that of C82U A120U C150A C169G U176G, 0.00171.
In the case of C82A A111C A120G C169G U176G it was 0.00494.
In the case of C82A A120U it was 0.154.
Take C82A A111U A120U A145U C150G U176C: the reverse-splicing fitness worked out at 0.00545.
The value for C82A A111U A120U A145C C150U was 0.00779.
In the case of C82A A111G A120U C150U C169U it was 0.0051; in that of A111C A120G C150A C169G U176A, 0.0175; in that of C82U A111C A120U A145C C169U U176A, 0.00335.
For C82A A120C A145C U176C, the reverse-splicing fitness worked out at 0.0514.
The value for A111G A120G A145U C150U C169A U176G was 0.00532; that for C82G A111G A120G C150U C169G U176A was 0.0182; that for A111G A120C A145U C150G was 0.12.
For the variant C82G A111U A120G A145U C150U, the reverse-splicing fitness was 0.0139.
Take A111G A120U A145C C150A C169G U176A: the reverse-splicing fitness amounted to 0.00272.
Turning to C82U A111G C150A C169U U176G, the reverse-splicing fitness was 0.00684.
For C82G A111C A120C A145U C150A U176G, the reverse-splicing fitness turned out to be 0.00601.
The value for C82A A111U A120U A145U C150G C169U was 0.00332; that for C82U A111U A120G A145U C169U was 0.00798; that for C82G A111C A120G A145G C169A was 0.0114.
In the case of C82A A111U A120G A145G C150G U176G it was 0.00604.
In the case of C82A A111C A120G A145U C150G C169A U176A it was 0.00941.
Take C82U A120C A145C C150U C169A U176G: the reverse-splicing fitness worked out at 0.00409.
On to C82U A111C A145C U176A, for which the reverse-splicing fitness was found to be 0.0676.
For the variant A111U A120C C150U C169G, the reverse-splicing fitness worked out at 0.00855.
As to A111C A145U C150A, the reverse-splicing fitness was 0.286.
With C82G A111C A145U C150A U176C, the reverse-splicing fitness turned out to be 0.0248.
The value for A111U A120G A145U C150A C169G U176G was 0.00465.
On to C82U A111G A120U C169U U176C, for which the reverse-splicing fitness came out at 0.00442.
In the case of C82A A111U A120C C150G C169G U176G it was 0.00574; in that of C82G A111G A120C A145C C150A C169A, 0.00953.
With C82G A111C A120G A145G C150U C169U U176A, the reverse-splicing fitness stood at 0.0141.
As for C82U A111G A145U U176G, the reverse-splicing fitness turned out to be 0.0781.
The value for C82G A111G A120G A145G C150U C169A U176C was 0.0177; that for A120G A145G C150U U176A was 0.151; that for C82A A111U C150G C169G U176G was 0.00641.
As for C82A A120C C150G C169U U176A, the reverse-splicing fitness came to 0.00617.
A111U C150A C169A U176A: the reverse-splicing fitness was found to be 0.0182.
In the case of C82A A111C A120G C150A C169G, the reverse-splicing fitness turned out to be 0.00885.
The value for C82U A111C A120U A145G C169G U176C was 0.00344; that for A111C A120C A145G C150G C169G U176C was 0.0119; that for A111G A120C A145C C150A C169G U176A was 0.0185.
C82A A111U A120G C150U C169U U176G: the reverse-splicing fitness was 0.00708.
In the case of C82A A111C A120G A145G C150U C169A U176C it was 0.0149; in that of C82G A111U A145G C150A C169A U176G, 0.00721.

(Values after the RNAGym collection of RNA variant scans (doi:10.1093/molbev/msab373).)
